Test results as given in the supplement of paper PMC10567573.

B1: INTS3 (parent)
chain: KKREFRFHPIKETVVEEPVDITPY
B2: FANCE (parent)
chain: AQVLMLGQILELPWKEETFLVLQS

Variants of: B1
Assay: protein stability index of a GFP-peptide fusion (GPS, HEK-293T) (PSI 1-6); higher = more stable
Conditions: c terminus: a fixed tail appended
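Also: lentivirally expressed fusions sorted by FACS into six bins by GFP to DsRed ratio, PSI derived from sequencing read proportions per bin multiplied by bin number.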

In order of rising protein stability index:
1. D20S  1.04
2. I21S  1.21
3. D20A  1.26
4. E4V  1.27
5. E4S  1.33
6. K2V  1.37
7. V19W  1.38
8. V15K  1.39
9. E12T  1.39
10. I10R  1.41
11. E4W  1.41
12. E16M  1.41
13. V14T  1.42
14. E17K  1.43
15. T13L  1.43
16. R3M  1.43
17. P23V  1.44
18. R3W  1.44
19. E4N  1.48
20. V15G  1.49
21. I21G  1.49
22. I10C  1.51
23. V19I  1.51
24. V14A  1.52
25. V15W  1.53
26. E4G  1.54
27. T13S  1.55
28. I21Y  1.56
29. D20L  1.56
30. E12S  1.56
31. V15S  1.58
32. T22V  1.58
33. T13I  1.58
34. I21H  1.59
35. I21R  1.59
36. E17P  1.59
37. P23S  1.61
38. R3L  1.61
39. K11W  1.61
40. E17H  1.62
41. T13N  1.63
42. V14G  1.63
43. P18I  1.64
44. V14P  1.64
45. K1I  1.65
46. D20V  1.65
47. K1P  1.66
48. P23A  1.66
49. R3S  1.66
50. R3P  1.66
51. K2H  1.67
52. P23F  1.67
53. D20T  1.67
54. V15C  1.68
55. K1G  1.69
56. I21M  1.7
57. V19L  1.7
58. D20I  1.7
59. Y24K  1.71
60. K11N  1.71
61. T22N  1.72
62. K1H  1.73
63. R3T  1.73
64. E16A  1.73
65. P23H  1.74
66. V15T  1.75
67. T13P  1.75
68. I10L  1.75
69. Y24M  1.76
70. I21A  1.76
71. V19H  1.76
72. R3N  1.76
73. E17D  1.79
74. E17A  1.79
75. T13R  1.79
76. P18S  1.79
77. D20P  1.79
78. E4L  1.79
79. V19Q  1.8
80. K1C  1.81
81. P9W  1.81
82. E4Y  1.81
83. T22C  1.82
84. K11Q  1.82
85. K11A  1.82
86. E16S  1.82
87. K2L  1.83
88. I10Q  1.83
89. P18V  1.83
90. Y24S  1.84
91. K1R  1.84
92. V15Y  1.84
93. P23L  1.84
94. P23N  1.84
95. P18L  1.85
96. K11I  1.85
97. P18C  1.86
98. I10M  1.87
99. P18A  1.87
100. E12D  1.87
101. Y24W  1.88
102. T22K  1.88
103. V19K  1.88
104. V19T  1.88
105. K11R  1.88
106. E16L  1.88
107. T22M  1.89
108. E17F  1.89
109. R3Q  1.89
110. V14H  1.89
111. V14Y  1.89
112. I10P  1.9
113. E4H  1.9
114. V15F  1.91
115. V14W  1.91
116. V14I  1.91
117. I21F  1.92
118. T13A  1.92
119. R3V  1.92
120. E12P  1.92
121. T22Q  1.93
122. E12R  1.94
123. E4F  1.94
124. I21T  1.95
125. E17M  1.95
126. E16V  1.95
127. V14E  1.95
128. T13Q  1.96
129. K1Q  1.97
130. T22E  1.97
131. E17C  1.97
132. E12A  1.97
133. V15R  1.98
134. V14C  1.98
135. Y24H  1.99
136. T22R  1.99
137. P18M  1.99
138. P9Y  1.99
139. V15Q  2
140. I21N  2
141. E12Y  2
142. K1D  2.01
143. K1T  2.01
144. I21C  2.01
145. I21L  2.01
146. V19C  2.01
147. I21K  2.02
148. E17V  2.02
149. I10K  2.02
150. V19N  2.02
151. D20Q  2.02
152. Y24N  2.03
153. K2W  2.03
154. P9C  2.03
155. Y24Q  2.04
156. K1F  2.04
157. P23D  2.04
158. P9S  2.04
159. K11G  2.04
160. E4M  2.04
161. E12C  2.05
162. E4I  2.05
163. E17Y  2.06
164. T13H  2.06
165. P18Q  2.06
166. V19P  2.06
167. K2F  2.08
168. P23C  2.08
169. I10H  2.09
170. K1W  2.1
171. I21W  2.1
172. E16W  2.1
173. K2G  2.11
174. T22D  2.12
175. T13V  2.12
176. V15M  2.13
177. V15P  2.13
178. R3H  2.14
179. E17L  2.15
180. D20G  2.15
181. K11C  2.15
182. D20Y  2.16
183. Y24P  2.17
184. K2Q  2.17
185. P9F  2.17
186. P9M  2.17
187. P9Q  2.17
188. E12H  2.17
189. E17N  2.19
190. T13D  2.19
191. E12K  2.19
192. V14M  2.19
193. D20N  2.2
194. D20R  2.22
195. T22H  2.23
196. V19M  2.23
197. Y24T  2.24
198. K1L  2.25
199. V19S  2.25
200. D20H  2.25
201. R3Y  2.25
202. P18N  2.26
203. K1E  2.27
204. I10T  2.27
205. P23W  2.28
206. I10D  2.28
207. V19Y  2.28
208. K2R  2.29
209. K1A  2.29
210. E16I  2.29
211. I10G  2.3
212. E17R  2.32
213. Y24I  2.33
214. T22L  2.33
215. T22S  2.33
216. K11P  2.33
217. V15D  2.35
218. R3C  2.35
219. K11V  2.36
220. E16Y  2.36
221. I21E  2.37
222. I21D  2.37
223. T13C  2.38
224. P23M  2.4
225. E16F  2.4
226. V15E  2.41
227. P9T  2.42
228. E12M  2.43
229. Y24D  2.44
230. E17W  2.46
231. R3K  2.46
232. E16G  2.47
233. D20F  2.48
234. K2P  2.5
235. I21P  2.5
236. K11E  2.5
237. E16K  2.5
238. K2D  2.53
239. E16P  2.54
240. K2E  2.55
241. R6W  2.55
242. T13W  2.56
243. T22F  2.57
244. R6F  2.57
245. Y24A  2.59
246. P9K  2.59
247. E17I  2.6
248. E12I  2.61
249. P18K  2.62
250. E4P  2.62
251. I21V  2.63
252. P9V  2.63
253. K11M  2.64
254. V19A  2.67
255. K11Y  2.7
256. P18F  2.72
257. K11L  2.72
258. E16R  2.73
259. K1V  2.74
260. R3E  2.74
261. E4K  2.79
262. P9H  2.83
263. I10N  2.84
264. F7Y  2.84
265. R3D  2.84
266. E4R  2.86
267. P23Y  2.87
268. E12G  2.93
269. E12F  2.96
270. P9N  3.02
271. V14S  3.05
272. P23E  3.24
273. H8C  3.25
274. I10W  3.25
275. F7W  3.25
276. P18Y  3.25
277. H8T  3.34
278. H8W  3.41
279. H8Y  3.43
280. R6V  3.49
281. H8S  3.54
282. H8E  3.55
283. T13Y  3.62
284. V14Q  3.65
285. R6Y  3.66
286. H8M  3.79
287. P9D  3.8
288. F5Y  3.92
289. E12L  3.92
290. H8G  3.93
291. H8L  3.97
292. R6A  3.97
293. H8K  4.01
294. F5L  4.01
295. R6I  4.01
296. R6M  4.02
297. H8R  4.07
298. R6L  4.15
299. F5P  4.18
300. R6Q  4.23
301. R6D  4.24
302. R6N  4.25
303. F7C  4.26
304. R6S  4.31
305. F5G  4.34
306. F5A  4.36
307. F5M  4.36
308. F5H  4.36
309. F5Q  4.37
310. R6P  4.38
311. F5C  4.39
312. F5D  4.4
313. F7M  4.4
314. F7D  4.43
315. F5S  4.45
316. H8D  4.47
317. R6E  4.48
318. F5N  4.53
319. I10Y  4.54
320. F5R  4.56
321. R6G  4.57
322. H8P  4.58
323. F7P  4.58
324. F7R  4.6
325. F7E  4.62
326. F5V  4.63
327. F7H  4.63
328. F7V  4.65
329. F7S  4.74
330. F5K  4.75
331. F7A  4.76
332. F7T  4.79
333. F5E  4.8

Variants of: B2
Assay: as above
Conditions: c terminus: a fixed tail appended

For F19E, the protein stability index was 2.25.
